These results are taken from PMC12774752, “4E-BP1 differentially regulates translation of a subset of human mRNAs” (The Journal of Biological Chemistry, 2025).

Series [1] deals with T1, eIF4GI557-1599 (human, UniProt Q04637 557-1599). The series can be described thus: fluorescence anisotropy; mRNA pre-bound by eIF4E•FITC-4E-BP1 peptide (label on peptide); text gives error 0.7; 20 mM HEPES-KOH pH 7.5, 200 mM KCl, 1 mM MgCl2, 25 °C; 10 nM labeled mRNA; pre-assembly with 0.5 uM eIF4E and 1 uM 4E-BP1. The conditions noted are these: protein: recombinant; tags: N-terminal 6xHis, TEV-cleaved; label: 3' fluorescein; structured 5'UTR.

Series [2] deals with T2, eIF4GI557-1599;eIF4A (human;human?, UniProt Q04637;P60842 557-1599;1-406, |). The experiment in a line: fluorescence anisotropy; ATP; mRNA pre-bound by eIF4E•4E-BP1; 20 mM HEPES-KOH pH 7.5, 200 mM KCl, 1 mM MgCl2, 25 °C; 10 nM labeled mRNA; pre-assembly with 0.5 uM eIF4E and 1 uM 4E-BP1. The conditions noted are these: protein: recombinant;recombinant, tags: N-terminal 6xHis, TEV-cleaved;N-terminal His-MBP, copies: 1;1, label: 3' fluorescein, structured 5'UTR.

Series [3] has as its target 4E-BP1 (human, UniProt Q13541 1-118). The experiment in a line: fluorescence anisotropy; 20 mM HEPES-KOH pH 7.5, 200 mM KCl, 1 mM MgCl2, 25 °C; 10 nM labeled mRNA; pre-assembly with 0.5 uM eIF4E and 1 uM 4E-BP1. The conditions noted are these: protein: recombinant; tags: N-terminal 6xHis, TEV-cleaved; label: 3' fluorescein; structured 5'UTR.
For series [4], the target named is eIF4E (human, UniProt P06730 1-217). The series is described as above. As to conditions: protein: recombinant; tags: N-terminal polyHis, TEV-cleaved; label: 3' fluorescein; structured 5'UTR.
For series [5], the target named is eIF4E;4E-BP1 (human;human, UniProt P06730;Q13541 1-217;1-118, |). The series is described as above. As to conditions: protein: recombinant;recombinant, tags: N-terminal polyHis, TEV-cleaved;N-terminal 6xHis, copies: 1;1, label: 3' fluorescein, structured 5'UTR.
The target of series [6] is T1, eIF4GI557-1599. Described as above. The conditions noted are these: protein: recombinant; tags: N-terminal 6xHis, TEV-cleaved; label: 3' fluorescein; structured 5'UTR.
For series [7], the target named is T2, eIF4GI557-1599;eIF4A. The experiment in a line: fluorescence anisotropy; mRNA pre-bound by eIF4E•4E-BP1; 20 mM HEPES-KOH pH 7.5, 200 mM KCl, 1 mM MgCl2, 25 °C; 10 nM labeled mRNA; pre-assembly with 0.5 uM eIF4E and 1 uM 4E-BP1. As to conditions: protein: recombinant;recombinant, tags: N-terminal 6xHis, TEV-cleaved;N-terminal His-MBP, copies: 1;1, label: 3' fluorescein, structured 5'UTR.

The target of series [8] is T1, eIF4GI557-1599. The series is described as above. The conditions noted are these: protein: recombinant; tags: N-terminal 6xHis, TEV-cleaved; label: 3' fluorescein; structured 5'UTR.

T1 sequence (Q04637 557-1599): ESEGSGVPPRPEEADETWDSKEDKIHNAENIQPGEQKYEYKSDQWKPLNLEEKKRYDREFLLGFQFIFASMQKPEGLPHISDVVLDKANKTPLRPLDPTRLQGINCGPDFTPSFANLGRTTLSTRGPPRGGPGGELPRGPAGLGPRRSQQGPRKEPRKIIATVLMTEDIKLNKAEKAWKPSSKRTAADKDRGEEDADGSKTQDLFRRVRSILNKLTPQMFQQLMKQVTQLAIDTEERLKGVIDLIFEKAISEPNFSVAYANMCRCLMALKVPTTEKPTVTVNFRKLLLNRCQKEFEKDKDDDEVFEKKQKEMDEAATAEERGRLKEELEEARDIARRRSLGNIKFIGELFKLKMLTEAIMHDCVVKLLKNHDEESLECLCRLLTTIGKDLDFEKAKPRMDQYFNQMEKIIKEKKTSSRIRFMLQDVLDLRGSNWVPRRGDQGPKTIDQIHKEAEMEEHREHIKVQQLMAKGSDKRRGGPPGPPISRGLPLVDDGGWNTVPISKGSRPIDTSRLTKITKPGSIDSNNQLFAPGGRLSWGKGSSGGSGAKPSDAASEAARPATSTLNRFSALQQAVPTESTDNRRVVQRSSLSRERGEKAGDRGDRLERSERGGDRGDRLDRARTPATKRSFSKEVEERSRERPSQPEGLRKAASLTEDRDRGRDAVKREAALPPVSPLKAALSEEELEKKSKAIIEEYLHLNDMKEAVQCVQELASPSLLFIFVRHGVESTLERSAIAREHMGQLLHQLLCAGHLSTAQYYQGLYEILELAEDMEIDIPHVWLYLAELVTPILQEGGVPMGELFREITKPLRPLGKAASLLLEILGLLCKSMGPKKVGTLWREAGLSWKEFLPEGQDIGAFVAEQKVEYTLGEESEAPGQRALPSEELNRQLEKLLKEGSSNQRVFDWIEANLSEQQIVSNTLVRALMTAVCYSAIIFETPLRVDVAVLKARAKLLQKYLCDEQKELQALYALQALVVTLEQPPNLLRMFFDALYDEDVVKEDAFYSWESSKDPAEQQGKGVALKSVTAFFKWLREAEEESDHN
T2 sequence (Q04637 557-1599, chain 1 of 2): as the sequence (Q04637 557-1599) above
T2 sequence (P60842 whole entry, chain 2 of 2): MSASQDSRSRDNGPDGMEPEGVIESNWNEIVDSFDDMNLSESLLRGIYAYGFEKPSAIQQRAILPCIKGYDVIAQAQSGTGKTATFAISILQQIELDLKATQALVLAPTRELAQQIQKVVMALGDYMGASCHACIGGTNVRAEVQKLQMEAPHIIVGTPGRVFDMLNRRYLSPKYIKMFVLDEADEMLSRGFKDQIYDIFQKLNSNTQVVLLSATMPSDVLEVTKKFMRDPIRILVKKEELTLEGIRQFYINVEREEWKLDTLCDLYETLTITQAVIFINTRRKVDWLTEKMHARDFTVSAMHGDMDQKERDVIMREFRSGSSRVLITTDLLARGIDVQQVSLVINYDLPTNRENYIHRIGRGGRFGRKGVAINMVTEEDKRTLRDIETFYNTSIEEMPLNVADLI
Sequence of 4E-BP1 (Q13541 whole entry): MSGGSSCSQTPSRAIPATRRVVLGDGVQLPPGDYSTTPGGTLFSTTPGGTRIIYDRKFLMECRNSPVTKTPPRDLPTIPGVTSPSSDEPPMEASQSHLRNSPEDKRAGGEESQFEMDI
Sequence of eIF4E (P06730 whole entry): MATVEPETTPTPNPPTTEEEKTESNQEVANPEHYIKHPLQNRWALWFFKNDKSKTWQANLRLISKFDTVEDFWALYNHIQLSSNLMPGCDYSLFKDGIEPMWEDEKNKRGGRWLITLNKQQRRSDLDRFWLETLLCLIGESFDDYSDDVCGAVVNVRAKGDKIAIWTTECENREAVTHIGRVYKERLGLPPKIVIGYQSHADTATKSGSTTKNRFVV
Sequence of eIF4E;4E-BP1 (P06730 whole entry, chain 1 of 2): as the sequence (P06730 whole entry) above
Sequence of eIF4E;4E-BP1 (Q13541 whole entry, chain 2 of 2): as the sequence (Q13541 whole entry) above

B1: ApppG p53B 5'UTR (structured_RNA)
RNA: AUGGAGGAGCCGCAGUCAGAUCCUAGCGUCGAGCCCCCUCUGAGUCAGGAAACAUUUUCAGACCUAUGGAAACUACUUCCUGAAAACAACGUUCUGUCCCCCUUGCCGUCCCAAGCA
modifications: 5' ApppG cap (non-functional)
For the molecule B1, the dissociation constant (Kd) in series [1] worked out at 42 ± 2 nM; in series [2], 21 ± 1.1 nM; in series [4] it was 159 ± 4.2 nM; in series [5], 89 ± 3.5 nM; in series [6] it was 66 ± 1.7 nM; in series [7] it was 28 ± 1.8 nM. The Kd in series [8] is 22 ± 0.8 nM. Besides, the binding result in series [3] is on record as “no binding”.
